Source: the supplement of paper PMC6757056
± gives the standard deviation of the averaged measurements.

B1: library; a variant is named by its letters at N, in order (parent)
chain: GCUGUCACCGAGAAACUGUGAAGUAUAUCUUAAACCUGGGCACUUAAAAGAUAUAUGGAGUUAGUAGUGCAACCUGCUCGGUCUGAUGAGUCCNNNNNNGGACGAAACAGC

Tests used:
cyclic di-GMP [1] = variants of: B1; test: normalized RNA/DNA level without ligand (relative to sTRSVctl = 100) (log10 (% of sTRSVctl)); HEK293T; ligand: cyclic di-GMP (c-di-GMP-II aptamer); higher = less ribozyme self-cleavage, higher mRNA level; conditions: reporter: mCherry (pCS4076), ligand present: no
Method in brief: (§1)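 Library plasmids carrying ribozyme switches linked to mCherry, or to eGFP in some ligand experiments, were transfected into HEK293T at 4 µg per 6-well well, with any ligand added 1 h earlier. Seventy-two hours on, total RNA was extracted with EDTA and reverse-transcribed, amplified, barcoded and sequenced. RNA level was RNA over DNA reads normalized to a spiked-in non-cleaving sequence or to the top sequences, then scaled and log-transformed. The top set was 25 sequences, the transform was ×100 and log10, and sequences needed ≥100 DNA reads.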

cyclic di-GMP [2] = variants of: B1; test: normalized RNA/DNA level with ligand (relative to sTRSVctl = 100) (log10 (% of sTRSVctl)); HEK293T; ligand: cyclic di-GMP (c-di-GMP-II aptamer); ligand concentration (+) RNA-Seq: 1 mM; higher = less ribozyme self-cleavage, higher mRNA level; conditions: reporter: mCherry (pCS4076), ligand present: yes
Method in brief: as §1

Variant | normalized RNA/DNA level without ligand (log10) (cyclic di-GMP [1]) | normalized RNA/DNA level with ligand (log10) (cyclic di-GMP [2])
GCUGUCACCGAGAAACUGUGAAGUAUAUCUUAAACCUGGGCACUUAAAAGAUAUAUGGAGUUAGUAGUGCAACCUGCUCGGUCUGAUGAGUCCGAUAACGGACGAAACAGC [GAUAAC] | 1.675 ± 0.0073 | 1.85 ± 0.1
GCUGUCACCGAGAAACUGUGAAGUAUAUCUUAAACCUGGGCACUUAAAAGAUAUAUGGAGUUAGUAGUGCAACCUGCUCGGUCUGAUGAGUCCGACAAUGGACGAAACAGC [GACAAU] | 1.59 ± 0.062 | 1.74 ± 0.071
GCUGUCACCGAGAAACUGUGAAGUAUAUCUUAAACCUGGGCACUUAAAAGAUAUAUGGAGUUAGUAGUGCAACCUGCUCGGUCUGAUGAGUCCGGUCCAGGACGAAACAGC [GGUCCA] | 1.777 ± 0.015 | 1.95 ± 0.022
GCUGUCACCGAGAAACUGUGAAGUAUAUCUUAAACCUGGGCACUUAAAAGAUAUAUGGAGUUAGUAGUGCAACCUGCUCGGUCUGAUGAGUCCACGCGAGGACGAAACAGC [ACGCGA] | 1.4 ± 0.11 | 1.62 ± 0.11
GCUGUCACCGAGAAACUGUGAAGUAUAUCUUAAACCUGGGCACUUAAAAGAUAUAUGGAGUUAGUAGUGCAACCUGCUCGGUCUGAUGAGUCCGGCCGCGGACGAAACAGC [GGCCGC] | 1.71 ± 0.03 | 1.84 ± 0.097
GCUGUCACCGAGAAACUGUGAAGUAUAUCUUAAACCUGGGCACUUAAAAGAUAUAUGGAGUUAGUAGUGCAACCUGCUCGGUCUGAUGAGUCCAAUUCAGGACGAAACAGC [AAUUCA] | 1.62 ± 0.078 | 1.8 ± 0.12
GCUGUCACCGAGAAACUGUGAAGUAUAUCUUAAACCUGGGCACUUAAAAGAUAUAUGGAGUUAGUAGUGCAACCUGCUCGGUCUGAUGAGUCCGUAGGGGGACGAAACAGC [GUAGGG] | 1.55 ± 0.11 | 1.71 ± 0.025
GCUGUCACCGAGAAACUGUGAAGUAUAUCUUAAACCUGGGCACUUAAAAGAUAUAUGGAGUUAGUAGUGCAACCUGCUCGGUCUGAUGAGUCCCCCUUCGGACGAAACAGC [CCCUUC] | 1.729 ± 0.0068 | 1.86 ± 0.082
GCUGUCACCGAGAAACUGUGAAGUAUAUCUUAAACCUGGGCACUUAAAAGAUAUAUGGAGUUAGUAGUGCAACCUGCUCGGUCUGAUGAGUCCAUUUGAGGACGAAACAGC [AUUUGA] | 1.51 ± 0.052 | 1.75 ± 0.16
GCUGUCACCGAGAAACUGUGAAGUAUAUCUUAAACCUGGGCACUUAAAAGAUAUAUGGAGUUAGUAGUGCAACCUGCUCGGUCUGAUGAGUCCCGGAUGGGACGAAACAGC [CGGAUG] | 1.64 ± 0.057 | 1.77 ± 0.17
GCUGUCACCGAGAAACUGUGAAGUAUAUCUUAAACCUGGGCACUUAAAAGAUAUAUGGAGUUAGUAGUGCAACCUGCUCGGUCUGAUGAGUCCGCUGAGGGACGAAACAGC [GCUGAG] | 1.5 ± 0.079 | 1.67 ± 0.069
GCUGUCACCGAGAAACUGUGAAGUAUAUCUUAAACCUGGGCACUUAAAAGAUAUAUGGAGUUAGUAGUGCAACCUGCUCGGUCUGAUGAGUCCAUGCUUGGACGAAACAGC [AUGCUU] | 1.61 ± 0.025 | 1.8 ± 0.12
GCUGUCACCGAGAAACUGUGAAGUAUAUCUUAAACCUGGGCACUUAAAAGAUAUAUGGAGUUAGUAGUGCAACCUGCUCGGUCUGAUGAGUCCGAGGCUGGACGAAACAGC [GAGGCU] | 1.83 ± 0.046 | 1.87 ± 0.068
GCUGUCACCGAGAAACUGUGAAGUAUAUCUUAAACCUGGGCACUUAAAAGAUAUAUGGAGUUAGUAGUGCAACCUGCUCGGUCUGAUGAGUCCGCUUGUGGACGAAACAGC [GCUUGU] | 1.577 ± 0.005 | 1.75 ± 0.15
GCUGUCACCGAGAAACUGUGAAGUAUAUCUUAAACCUGGGCACUUAAAAGAUAUAUGGAGUUAGUAGUGCAACCUGCUCGGUCUGAUGAGUCCUGUCUUGGACGAAACAGC [UGUCUU] | 1.73 ± 0.0071 | 1.88 ± 0.1
GCUGUCACCGAGAAACUGUGAAGUAUAUCUUAAACCUGGGCACUUAAAAGAUAUAUGGAGUUAGUAGUGCAACCUGCUCGGUCUGAUGAGUCCUGCCGUGGACGAAACAGC [UGCCGU] | 1.66 ± 0.013 | 1.83 ± 0.12
GCUGUCACCGAGAAACUGUGAAGUAUAUCUUAAACCUGGGCACUUAAAAGAUAUAUGGAGUUAGUAGUGCAACCUGCUCGGUCUGAUGAGUCCGAGAGGGGACGAAACAGC [GAGAGG] | 1.746 ± 0.016 | 1.82 ± 0.11
GCUGUCACCGAGAAACUGUGAAGUAUAUCUUAAACCUGGGCACUUAAAAGAUAUAUGGAGUUAGUAGUGCAACCUGCUCGGUCUGAUGAGUCCUGUUCAGGACGAAACAGC [UGUUCA] | 1.71 ± 0.066 | 1.81 ± 0.12
GCUGUCACCGAGAAACUGUGAAGUAUAUCUUAAACCUGGGCACUUAAAAGAUAUAUGGAGUUAGUAGUGCAACCUGCUCGGUCUGAUGAGUCCGAACAAGGACGAAACAGC [GAACAA] | 1.55 ± 0.03 | 1.7 ± 0.14
GCUGUCACCGAGAAACUGUGAAGUAUAUCUUAAACCUGGGCACUUAAAAGAUAUAUGGAGUUAGUAGUGCAACCUGCUCGGUCUGAUGAGUCCUCAAGGGGACGAAACAGC [UCAAGG] | 1.8 ± 0.067 | 1.89 ± 0.12
GCUGUCACCGAGAAACUGUGAAGUAUAUCUUAAACCUGGGCACUUAAAAGAUAUAUGGAGUUAGUAGUGCAACCUGCUCGGUCUGAUGAGUCCGCAUAUGGACGAAACAGC [GCAUAU] | 1.528 ± 0.014 | 1.72 ± 0.06
GCUGUCACCGAGAAACUGUGAAGUAUAUCUUAAACCUGGGCACUUAAAAGAUAUAUGGAGUUAGUAGUGCAACCUGCUCGGUCUGAUGAGUCCCCGGGAGGACGAAACAGC [CCGGGA] | 1.51 ± 0.068 | 1.69 ± 0.089
GCUGUCACCGAGAAACUGUGAAGUAUAUCUUAAACCUGGGCACUUAAAAGAUAUAUGGAGUUAGUAGUGCAACCUGCUCGGUCUGAUGAGUCCAGGCCAGGACGAAACAGC [AGGCCA] | 1.721 ± 0.017 | 1.85 ± 0.096
GCUGUCACCGAGAAACUGUGAAGUAUAUCUUAAACCUGGGCACUUAAAAGAUAUAUGGAGUUAGUAGUGCAACCUGCUCGGUCUGAUGAGUCCGAACUCGGACGAAACAGC [GAACUC] | 1.725 ± 0.004 | 1.85 ± 0.1
GCUGUCACCGAGAAACUGUGAAGUAUAUCUUAAACCUGGGCACUUAAAAGAUAUAUGGAGUUAGUAGUGCAACCUGCUCGGUCUGAUGAGUCCGGGGCAGGACGAAACAGC [GGGGCA] | 1.752 ± 0.011 | 1.88 ± 0.081
GCUGUCACCGAGAAACUGUGAAGUAUAUCUUAAACCUGGGCACUUAAAAGAUAUAUGGAGUUAGUAGUGCAACCUGCUCGGUCUGAUGAGUCCCCACCAGGACGAAACAGC [CCACCA] | 1.7068 ± 0.0011 | 1.82 ± 0.11
